Test results taken from publication PMC9405553, “G-Quadruplex Formed by the Promoter Region of the hTERT Gene: Structure-Driven Effects on DNA Mismatch Repair Functions”.

Key:
ecMutL = ecMutL (Escherichia coli (K12 in Fig. S2 legend), UniProt P23367 1-615); assay: EMSA; ecMutS: 20 mM HEPES-KOH pH 7.9, 5 mM MgCl2, 120 mM KCl, 0.5 mg/mL BSA, 1 mM ADP, 37 C 15 min, 5 nM DNA; ecMutL/ngMutL: 20 mM HEPES pH 8.0, 100 mM KCl, 0.5 mg/mL BSA, 1 mM DTT, on ice 10 min, 20 nM DNA; gels in TAE at 4 C; conditions: protein: recombinant, tags: N-terminal His6, chain copies: 2
ecMutS [1] = target: T1, ecMutS (Escherichia coli, UniProt P23909 1-853); assay: EMSA; 1 mM ADP, 5 mM MgCl2; ecMutS: 20 mM HEPES-KOH pH 7.9, 5 mM MgCl2, 120 mM KCl, 0.5 mg/mL BSA, 1 mM ADP, 37 C 15 min, 5 nM DNA; ecMutL/ngMutL: 20 mM HEPES pH 8.0, 100 mM KCl, 0.5 mg/mL BSA, 1 mM DTT, on ice 10 min, 20 nM DNA; gels in TAE at 4 C; conditions: protein: recombinant, tags: N-terminal His6, chain copies: 2
T1 sequence: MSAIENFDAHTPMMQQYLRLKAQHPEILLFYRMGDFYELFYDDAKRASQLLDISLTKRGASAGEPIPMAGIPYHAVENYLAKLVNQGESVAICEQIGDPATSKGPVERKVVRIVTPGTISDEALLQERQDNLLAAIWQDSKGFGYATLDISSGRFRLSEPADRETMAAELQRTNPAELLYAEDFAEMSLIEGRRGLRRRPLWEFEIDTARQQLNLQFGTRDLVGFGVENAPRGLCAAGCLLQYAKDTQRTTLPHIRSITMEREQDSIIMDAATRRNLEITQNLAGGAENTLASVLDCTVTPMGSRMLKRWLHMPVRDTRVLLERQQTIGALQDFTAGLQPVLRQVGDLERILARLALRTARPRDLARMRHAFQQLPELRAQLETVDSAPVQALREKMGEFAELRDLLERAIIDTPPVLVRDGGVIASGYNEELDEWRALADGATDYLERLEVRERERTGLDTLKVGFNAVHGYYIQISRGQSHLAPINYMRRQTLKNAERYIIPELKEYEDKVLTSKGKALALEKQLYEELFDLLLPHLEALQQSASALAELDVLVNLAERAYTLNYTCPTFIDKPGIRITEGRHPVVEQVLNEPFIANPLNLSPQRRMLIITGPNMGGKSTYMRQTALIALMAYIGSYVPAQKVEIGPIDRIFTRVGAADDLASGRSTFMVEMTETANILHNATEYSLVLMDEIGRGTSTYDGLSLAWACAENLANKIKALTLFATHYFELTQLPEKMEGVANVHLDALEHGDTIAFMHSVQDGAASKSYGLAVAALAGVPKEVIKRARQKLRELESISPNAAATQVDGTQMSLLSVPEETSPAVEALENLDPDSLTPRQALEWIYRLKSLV

ngMutL = target: T2, ngMutL (Neisseria gonorrhoeae (FA 1090 in Fig. …, UniProt Q5F8M6 1-658)); assay: EMSA; ecMutS: 20 mM HEPES-KOH pH 7.9, 5 mM MgCl2, 120 mM KCl, 0.5 mg/mL BSA, 1 mM ADP, 37 C 15 min, 5 nM DNA; ecMutL/ngMutL: 20 mM HEPES pH 8.0, 100 mM KCl, 0.5 mg/mL BSA, 1 mM DTT, on ice 10 min, 20 nM DNA; gels in TAE at 4 C; conditions: protein: recombinant, tags: N-terminal His6, chain copies: 2
T2 sequence: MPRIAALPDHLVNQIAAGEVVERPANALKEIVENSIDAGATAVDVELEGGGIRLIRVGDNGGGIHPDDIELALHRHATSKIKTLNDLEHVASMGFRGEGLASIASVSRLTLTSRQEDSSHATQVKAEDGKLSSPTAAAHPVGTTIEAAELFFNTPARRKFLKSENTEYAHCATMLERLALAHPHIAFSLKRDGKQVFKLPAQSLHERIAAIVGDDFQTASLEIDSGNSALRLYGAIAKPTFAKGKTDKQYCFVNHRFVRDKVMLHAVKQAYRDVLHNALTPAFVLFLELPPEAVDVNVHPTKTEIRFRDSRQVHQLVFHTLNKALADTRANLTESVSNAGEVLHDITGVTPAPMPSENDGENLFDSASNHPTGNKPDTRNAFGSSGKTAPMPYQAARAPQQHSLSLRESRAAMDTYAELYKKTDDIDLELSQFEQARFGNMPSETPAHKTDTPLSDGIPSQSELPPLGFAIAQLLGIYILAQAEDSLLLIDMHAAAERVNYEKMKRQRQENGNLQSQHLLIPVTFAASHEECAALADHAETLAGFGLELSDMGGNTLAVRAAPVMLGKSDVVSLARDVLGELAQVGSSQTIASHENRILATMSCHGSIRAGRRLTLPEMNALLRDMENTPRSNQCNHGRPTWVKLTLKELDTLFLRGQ

ecMutS [2] = target: T1, ecMutS; assay: as above; conditions: protein: recombinant; tags: N-terminal His6; chain copies: 2; text says bottom strand; blunt, one T:G mismatch at strand 1 position 22
ecMutS [3] = target: T1, ecMutS; assay: competition; vs ds76-G/T-3', 65 nM ecMutS dimer; ecMutS: 20 mM HEPES-KOH pH 7.9, 5 mM MgCl2, 120 mM KCl, 0.5 mg/mL BSA, 1 mM ADP, 37 C 15 min, 5 nM DNA; ecMutL/ngMutL: 20 mM HEPES pH 8.0, 100 mM KCl, 0.5 mg/mL BSA, 1 mM DTT, on ice 10 min, 20 nM DNA; gels in TAE at 4 C; conditions: protein: recombinant; tags: N-terminal His6; chain copies: 2; label: none; three stacked parallel intramolecular G4s
[4] = label: 5'-TAMRA, three stacked parallel intramolecular G4s
[5] = label: 3'-TAMRA, three stacked parallel intramolecular G4s
[6] = text says 5' for ecMutS assays, single parallel intramolecular G4

Sequence of ecMutL (P23367 whole entry): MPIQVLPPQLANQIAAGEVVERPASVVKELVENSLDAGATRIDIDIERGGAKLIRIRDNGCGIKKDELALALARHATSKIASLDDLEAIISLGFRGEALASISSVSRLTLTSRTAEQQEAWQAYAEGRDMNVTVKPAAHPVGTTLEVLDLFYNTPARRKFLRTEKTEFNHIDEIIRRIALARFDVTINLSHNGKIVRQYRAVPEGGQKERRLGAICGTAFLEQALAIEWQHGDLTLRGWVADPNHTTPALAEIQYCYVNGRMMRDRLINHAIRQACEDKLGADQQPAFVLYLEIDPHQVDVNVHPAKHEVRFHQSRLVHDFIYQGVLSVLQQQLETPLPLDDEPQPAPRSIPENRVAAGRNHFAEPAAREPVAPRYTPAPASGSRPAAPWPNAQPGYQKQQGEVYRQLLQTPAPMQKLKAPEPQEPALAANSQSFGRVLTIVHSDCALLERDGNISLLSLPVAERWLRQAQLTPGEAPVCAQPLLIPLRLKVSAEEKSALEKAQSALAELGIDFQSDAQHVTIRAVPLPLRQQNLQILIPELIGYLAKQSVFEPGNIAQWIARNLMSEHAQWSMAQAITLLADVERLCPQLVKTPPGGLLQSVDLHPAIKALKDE

B1: WT-5' (structured_DNA)
DNA: GCCGCGGAAAGGAAGGGGAGGGGCTGGGAGGGCCCGGAGGGGGCTGGGCCGGGGACCCGGGAGGGGTCGGGACGGGGCGGGGTCCGCGCGGAGGAG
- Kd (ecMutL; [4]): 115 ± 30 nM
- Kd (ecMutS [1]; [4]): 15 ± 6 nM

B2: G228A-5' (structured_DNA)
DNA: GCCGCGGAAAGGAAGGGGAGGGGCTGGGAGGGCCCGGAAGGGGCTGGGCCGGGGACCCGGGAGGGGTCGGGACGGGGCGGGGTCCGCGCGGAGGAG
- Kd (ecMutL; [4]): 170 ± 40 nM
- Kd (ecMutS [1]; [4]): 24 ± 6 nM

B3: WT-3' (structured_DNA)
DNA: GCCGCGGAAAGGAAGGGGAGGGGCTGGGAGGGCCCGGAGGGGGCTGGGCCGGGGACCCGGGAGGGGTCGGGACGGGGCGGGGTCCGCGCGGAGGAG
- Kd (ngMutL; [5]): 49 ± 3 nM

B4: G228A-3' (structured_DNA)
DNA: GCCGCGGAAAGGAAGGGGAGGGGCTGGGAGGGCCCGGAAGGGGCTGGGCCGGGGACCCGGGAGGGGTCGGGACGGGGCGGGGTCCGCGCGGAGGAG
- Kd (ngMutL; [5]): 44 ± 3 nM

B5: G250A-3' (structured_DNA)
DNA: GCCGCGGAAAGGAAGGGGAGGGGCTGGGAGGGCCCGGAGGGGGCTGGGCCGGGGACCCGGAAGGGGTCGGGACGGGGCGGGGTCCGCGCGGAGGAG
- Kd (ngMutL; [5]): 42 ± 2 nM

B6: G242,243A-3' (structured_DNA)
DNA: GCCGCGGAAAGGAAGGGGAGGGGCTGGGAGGGCCCGGAGGGGGCTGGGCCGGAAACCCGGGAGGGGTCGGGACGGGGCGGGGTCCGCGCGGAGGAG
- Kd (ngMutL; [5]): 51 ± 2 nM

B7: 95G4 (structured_DNA)
DNA: ATAGGACGCTGACACTGGTGCTTGGCAGCTGAGCCATATTTGGGTGGGTGGGTGGGTTGCTCGAGTAACGCTCATAGGATCCAAGCGCGAAAGGA
- Kd (ecMutL; [6]): 120 ± 20 nM
- Kd (ngMutL; [6]): 41 ± 1 nM
- Kd (ecMutS [1]; [6]): 38 ± 5 nM

B8: ds96/96* (dsDNA)
DNA 1: ACCTGGATGCCTATAGGGCGAATTGGGTACCGCTGAATTGCACTGGACTTGATCCTCGATGATCCTAAGCTAAGCTTCAGCTCCAGCCTAAGCCTG
DNA 2: CAGGCTTAGGCTGGAGCTGAAGCTTAGCTTAGGATCATCGAGGATCGAGTCCGGTGCAATTCAGCGGTACCCAATTCGCCCTATAGGCATCCAGGT
- Kd (ngMutL; label: 3'-TAMRA on strand 1, blunt): 125 ± 5 nM

B9: ds76-G/T-3' (dsDNA)
DNA 1: ATAGGACGCTGACACTGGTGCTTGGCAGCTGAGCCATATGCTCGAGTAACGCTCATAGGATCCAAGCGCGAAAGGA
DNA 2: TCCTTTCGCGCTTGGATCCTATGAGCGTTACTCGAGCATATGGCTCAGCTGCCAGGCACCAGTGTCAGCGTCCTAT
- Kd (ecMutS [2]): 35 ± 3 nM

B10: WT (structured_DNA)
DNA: GCCGCGGAAAGGAAGGGGAGGGGCTGGGAGGGCCCGGAGGGGGCTGGGCCGGGGACCCGGGAGGGGTCGGGACGGGGCGGGGTCCGCGCGGAGGAG
- IC50 (ecMutS [3]): 32 ± 3 nM
- Ki (ecMutS [3]): 28 ± 5 nM

B11: G228A (unlabeled) (structured_DNA)
DNA: GCCGCGGAAAGGAAGGGGAGGGGCTGGGAGGGCCCGGAAGGGGCTGGGCCGGGGACCCGGGAGGGGTCGGGACGGGGCGGGGTCCGCGCGGAGGAG
- IC50 (ecMutS [3]): 35 ± 4 nM
- Ki (ecMutS [3]): 31 ± 6 nM

B12: G250A-5' (structured_DNA)
DNA: GCCGCGGAAAGGAAGGGGAGGGGCTGGGAGGGCCCGGAGGGGGCTGGGCCGGGGACCCGGAAGGGGTCGGGACGGGGCGGGGTCCGCGCGGAGGAG
- Kd (ecMutL; [4]): 130 ± 30 nM
- Kd (ecMutS [1]; [4]): 30 ± 7 nM

B13: G250A (unlabeled) (structured_DNA)
DNA: GCCGCGGAAAGGAAGGGGAGGGGCTGGGAGGGCCCGGAGGGGGCTGGGCCGGGGACCCGGAAGGGGTCGGGACGGGGCGGGGTCCGCGCGGAGGAG
- IC50 (ecMutS [3]): 40 ± 15 nM
- Ki (ecMutS [3]): 35 ± 15 nM

B14: G242,243A (unlabeled) (structured_DNA)
DNA: GCCGCGGAAAGGAAGGGGAGGGGCTGGGAGGGCCCGGAGGGGGCTGGGCCGGAAACCCGGGAGGGGTCGGGACGGGGCGGGGTCCGCGCGGAGGAG
- IC50 (ecMutS [3]): 28 ± 7 nM
- Ki (ecMutS [3]): 25 ± 8 nM

B15: G242,243A-5' (structured_DNA)
DNA: GCCGCGGAAAGGAAGGGGAGGGGCTGGGAGGGCCCGGAGGGGGCTGGGCCGGAAACCCGGGAGGGGTCGGGACGGGGCGGGGTCCGCGCGGAGGAG
- Kd (ecMutL; [4]): 110 ± 20 nM
- Kd (ecMutS [1]; [4]): 27 ± 4 nM
